Data on 3 proteins can be found in patent publication US20050262592.

Data set [1] deals with T1, streptokinase, P00779.
T1 chain: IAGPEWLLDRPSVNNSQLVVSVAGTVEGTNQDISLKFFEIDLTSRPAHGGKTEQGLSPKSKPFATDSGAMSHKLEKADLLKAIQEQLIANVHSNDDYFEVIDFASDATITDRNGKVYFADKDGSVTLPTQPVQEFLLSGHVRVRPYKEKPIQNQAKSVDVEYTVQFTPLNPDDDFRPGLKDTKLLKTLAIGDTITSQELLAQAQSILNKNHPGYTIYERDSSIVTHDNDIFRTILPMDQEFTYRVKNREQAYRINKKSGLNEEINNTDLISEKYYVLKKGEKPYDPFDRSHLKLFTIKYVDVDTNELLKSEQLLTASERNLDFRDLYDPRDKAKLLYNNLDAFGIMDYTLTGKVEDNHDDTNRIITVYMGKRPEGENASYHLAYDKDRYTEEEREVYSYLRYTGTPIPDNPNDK

Data set [2] deals with T2, duckweed-produced human microplasminogen.
T2 chain: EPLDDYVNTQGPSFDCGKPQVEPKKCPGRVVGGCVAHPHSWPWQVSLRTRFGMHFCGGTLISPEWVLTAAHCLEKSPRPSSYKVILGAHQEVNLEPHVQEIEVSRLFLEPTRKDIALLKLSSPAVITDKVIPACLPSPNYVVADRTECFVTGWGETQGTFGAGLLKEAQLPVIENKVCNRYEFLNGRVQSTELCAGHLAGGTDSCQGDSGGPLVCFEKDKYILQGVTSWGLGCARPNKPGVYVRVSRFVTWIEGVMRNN

B1: duckweed-produced human plasminogen (protein)
chain: KVYLSECKTGNGKNYRGTMSKTKNGITCQKWSSTSPHRPRFSPATHPSEGLEENYCRNPDNDPQGPWCYTTDPEKRYDYCDILECEEECMHCSGENYDGKISKTMSGLECQAWDSQSPHAHGYIPSKFPNKNLKKNYCRNPDRELRPWCFTTDPNKRWELCDIPRCTTPPPSSGPTYQCLKGTGENYRGNVAVTVSGHTCQHWSAQTPHTHNRTPENFPCKNLDENYCRNPDGKRAPWCHTTNSQVRWEYCKIPSCDSSPVSTEQLAPTAPPELTPVVQDCYHGDGQSYRGTSSTTTTGKKCQSWSSMTPHRHQKTPENYPNAGLTMNYCRNPDADKGPWCFTTDPSVRWEYCNLKKCSGTEASVVAPPPVVLLPDVETPSEEDCMFGNGKGYRGKRATTVTGTPCQDWAAQEPHRHSIFTPETNPRAGLEKNYCRNPDGDVGGPWCYTTNPRKLYDYCDVPQCAAPSFDCGKPQVEPKKCPGRVVGGCVAHPHSWPWQVSLRTRFGMHFCGGTLISPEWVLTAAHCLEKSPRPSSYKVILGAHQEVNLEPHVQEIEVSRLFLEPTRKDIALLKLSSPAVITDKVIPACLPSPNYVVADRTECFVTGWGETQGTFGAGLLKEAQLPVIENKVCNRYEFLNGRVQSTELCAGHLAGGTDSCQGDSGGPLVCFEKDKYILQGVTSWGLGCARPNKPGVYVRVSRFVTWIEGVMRNN
Turning to B1, in data set [1], the “cleavage of the chromogenic substrate Glu-Phe-Lys-pNA at 405 nm” value is “For each of the seven transgenic lines tested, the activity level was closely correlated with the protein expression levels as determined by ELISA” and the “streptokinase activity assay (cleavage of a chromogenic substrate, Coamatic plasminogen kit)” value is “Activation with streptokinase also produced activated plasminogen”.

B2: tissue plasminogen activator (protein)
chain: SYQVICRDEKTQMIYQQHQSWLRPVLRSNRVEYCWCNSGRAQCHSVPVKSCSEPRCFNGGTCQQALYFSDFVCQCPEGFAGKCCEIDTRATCYEDQGISYRGTWSTAESGAECTNWNSSALAQKPYSGRRPDAIRLGLGNHNYCRNPDRDSKPWCYVFKAGKYSSEFCSTPACSEGNSDCYFGNGSAYRGTHSLTESGASCLPWNSMILIGKVYTAQNPSAQALGLGKHNYCRNPDGDAKPWCHVLKNRRLTWEYCDVPSCSTCGLRQYSQPQFRIKGGLFADIASHPWQAAIFAKHRRSPGERFLCGGILISSCWILSAAHCFQERFPPHHLTVILGRTYRVVPGEEEQKFEVEKYIVHKEFDDDTYDNDIALLQLKSDSSRCAQESSVVRTVCLPPADLQLPDWTECELSGYGKHEALSPFYSERLKEAHVRLYPSSRCTSQHLLNRTVTDNMLCAGDTRSGGPQANLHDACQGDSGGPLVCLNDGRMTLVGIISWGLGCGQKDVPGVYTKVTNYLDWIRDNMRP
On to B2, for which the “Western blot: production of the B chain of plasmin” value in data set [2] was “Western blot analysis confirmed the production of the B chain of plasmin following activation of duckweed-produced microplasminogen with either urokinase or tPA”.

B3: duckweed-produced human microplasminogen (protein)
chain: T2 chain
Regarding B3, in data set [1], the “activity following activation by streptokinase (chromogenic substrate assay as for plasminogen)” value is “The duckweed-produced microplasminogen showed some level of activity in the absence of streptokinase, and a significant increase in activity following activation by streptokinase”.
